Data: patent publication EP2182008A2

Key:
[1] = target: soluble human αd/CD18 leucine zipper heterodimer (human) (UniProt P05107); experiment: ELISA, CAM/Ig on αd/CD18LZ captured with 212D
[2] = target: LFA-1 leucine zipper fusion protein (UniProt P20701); experiment: ELISA, CAM/Ig on captured integrin

B1: VCAM-1/IgG1 fusion protein (seven extracellular immunoglobulin-like domains) (Fc fusion, UniProt P19320 25-698, looked up, not shown: a dimerising Fc or GST)
chain: FKIETTPESRYLAQIGDSVSLTCSTTGCESPFFSWRTQIDSPLNGKVTNEGTTSTLTMNPVSFGNEHSYLCTATCESRKLEKGIQVEIYSFPKDPEIHLSGPLEAGKPITVKCSVADVYPFDRLEIDLLKGDHLMKSQEFLEDADRKSLETKSLEVTFTPVIEDIGKVLVCRAKLHIDEMDSVPTVRQAVKELQVYISPKNTVISVNPSTKLQEGGSVTMTCSSEGLPAPEIFWSKKLDNGNLQHLSGNATLTLIAMRMEDSGIYVCEGVNLIGKNRKEVELIVQEKPFTVEISPGPRIAAQIGDSVMLTCSVMGCESPSFSWRTQIDSPLSGKVRSEGTNSTLTLSPVSFENEHSYLCTVTCGHKKLEKGIQVELYSFPRDPEIEMSGGLVNGSSVTVSCKVPSVYPLDRLEIELLKGETILENIEFLEDTDMKSLENKSLEMTFIPTIEDTGKALVCQAKLHIDDMEFEPKQRQSTQTLYVNVAPRDTTVLVSPSSILEEGSSVNMTCLSQGFPAPKILWSRQLPNGELQPLSENATLTLISTKMEDSGVYLCEGINQAGRSRKEVELIIQVTPKDIKLTAFPSESVKEGDTVIISCTCGNVPETWIILKKKAETGDTVLKSIDGAYTIRKAQLKDAGVYECESKNKVGSQLRSLTLDVQGRENNKDYFSPE
[1]
  fold increase in signal above background: 5 fold

B2: ICAM-2/Ig (Fc fusion, part only; not given: Ig Fc portion, UniProt P13598 25-223, looked up, part only)
chain, part: KVFEVHVRPKKLAVEPKGSLEVNCSTTCNQPEVGGLETSLDKILLDEQAQWKHYLVSNISHDTVLQCHFTCSGKQESMNSNVSVYQPPRQVILTLQPTLVAVGKSFTIECRVPTVEPLDSLTLFLFRGNETLHYETFGKAAPAPQEATATFNSTADREDGHRNFSCLAVLDLMSRGGNIFHKHSAPKMLEIYEPVSDSQ
[2]
  fold above background: 10 fold
